Experimental data from a protein production outcome set (Wang et al. 2014).

Test: label from the status in PepcDB records
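Note: failed if final PepcDB status was selected cloned or expressed and not failed if soluble or beyond.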

For “MLTRPMGEGYIQYLRLSKETTQPADSKIPGLWSSSVRPEFCCIYRVPDRLRKVNPEAYTPQMLLIGPLHHSKKAEALKRYKTDLRYLNYLNMELHKKKCLDSIADIYGDQPVKEFRRIIEINEKFIRDSYAESTIWINTKDFVEMILHDSVFILLFFIQTGSTLNFNKKEDILFNQSRLINATAILEDLILLENQLPYALLEKLFEPFSSNVNTKETFRDITLRAFRFEGKIKEEVRFQHFTDLFRCVRVSTLSLTEEQINIAKNEPPKSRKIMYNADKLDSAGVNFVNVDEENDLSLVITFKDGILKMPCFTVEDNTERVVRNLMALEQCHYPRTTFVCDYISFLDFLINTDQDVDLLAKKGIVKNWLGHQGSVTEMVNKLCLGLVDFGSHYSDIVENLNKHYDNRLNRSVGTLRRVYFKDLWTGTATIAAVVLLVLTLIQTVASILQVMMQNDNKSPPPPAPSRGL”, the protein production was “failed”.
For “MLTVIAEIRTRPGQHHRQAVLDQFAKIVPTVLKEEGCHGYAPMVDCAAGVSFQSMAPDSIVMIEQWESIAHLEAHLQTPHMKAYSEAVKGDVLEMNIRILQPGI”, the protein production was “not failed”.
In the case of “MLVALITLAFIHFCALITPGPDFFLVSQTAVSRSRKEAMLVVAGITAGVMFWASLALMGLNIIFEKMAWLKQGLLIAGGLYLCWLGYQMLRSAFSKNQQEEVTTVELPKAPYLFFMKGLLTNLSNPKAVIYFGSVFSLFLANPQLDQVHWLLFIIVSVETILWFCFVTFIFSLPSFRAAYRNFSKWIDGISGGIFTVFGIFLIGNR”, the protein production is reported as “failed”.
With “MLVKININGKKKSVDIEPEEYLVDTLRKVGNLSVKRGCDTGCCGLCTVLIDKKPTLSCATLTLRALDKEITTIEGLENEVKEFSEVLVKEGAEQCGFCSPGFILTVLAMKDELENPTDDEIKHYLTGNLCRCTGYMGQLRAIKTYLEVK” the protein production was “failed”.
With “MLVMIDTKRPPVYIDSQVGLNTFFLIRGRYPSLNLFVSFITTVKTLGNNVSRTHGDDAESDRVSNVDENNEAVDEQDNIEDDKTDEDEKEGDNEDGDGYDDYQGDDESMGGSTLDPTIDGSESSDEDCDYNKWNDVIVEEYGMLRRTSFSHQGNSVVCWQSVRTQVSVYLTEITFLTRVTVHQL” the protein production was “failed”.
With “MLVNGKWTADWQPVQKADDHGRFVRQVSSFRNWITPDGSAGPTGTGGFAAEAGRYRLYVALICPWASRTLMARRLKGLDGLIPVTVVNPVMGTQGWEFGGHDDAEEDPLFGARHLHEIYTRAEPQFTGRATVPVLWDMKRDAMVNNESADILRMFDTAFEGLAPSDLRLYPAALAGEIDALNAQVYDRLNNGVYKAGFASTQEAYDEAVAGVFEMLDHLEYRLTGDYIFGGALTETDIRIFVTLIRFDAAYHGLFKTNRRQIADYPRLWAYMRRILARPGVRETVNMDHITRGYYSIKALNPSRIRPVGPAHIEAALRETAAGI” the protein production was “not failed”.
With “MLVQAIMTSPAITVTASASVAEAARLMLDNRISGLPVVGANGALVGIVSEGDFLRRSELSTERKRSWLLEWLTSSGRIAAEYVRTHGRRVEEVMTAPVSAIAPTASLSDAVRLMERQEIKRLPVVEGGRLVGIVARSDLLRALSQALPATSTSAGDAQIQAAIEAALAKQSWSRNGFIHSRVTDGIAELTGTVFDERERLAAKVAVENVAGVTSVKDQLVWVDPYYGIALPPPDAETSQA” the protein production was “failed”.
For “MLVRTLSALECTKVLTANRVGRLACAKDGQPYVVPLYYAYSDAHLYAFSMPGKKIEWMRANPRVSVQVDEHGQGRGWKSVVVDGRYEELPDLIGHKLQRDHAWSVLSKHTDWWEPGALKPVTPPTADSAPHVFFRILIEQVSGREASE”, the protein production was “not failed”.
For “MLVTSLVVKPALSTTLKMCTFSTLSAFVLTACSGNAETTNVAEIQHDMGSATAAASPKATAPEGTVLKRSAIDALQTVGNSIGIKIGSHLELGSAADFEKGNTTKVSIDAECFDMTSSSKAFIVACSDGVHSVDPVSGKNSVIAQPTETAHYAVQVSTGEVLVAHRDSNKVEVFNDGEKLSEVATEYGSDQLISVPIEGQADAVVRINNKYTLIQDVNWKESKPGAILRVGKGVGRISAAKQGVVLASDAKKNQFAVYGAKDVIRLHQTSPTGPSPWGITWDNKHDLAWVATTGDNKVTGYDISSGTGSEKSSYNTIENVHNIAVLDDGTLVLASASGAGLQLVKSQTD”, the protein production was “failed”.
In the case of “MLVWEELREKALNKIYHDKEIGYLDPDILGFLLAFYRNRNDVYTQSSCSGRITIVDAEMPWDRKNSTIIFKNHLRITEQDLEDVLSKNQVRRLWLIVQGPIIHIYAKNIETGWDILKIAREAGFKHSGILATNQKGVLVELRTGIRMVHLLRESNTERVDKDKIKTLVNVCNEVLARGKQKMNLLKDLLSSSSNNSMELGKNSKLKTPI”, the protein production is reported as “not failed”.
In the case of “MLWRKRLFAHLYPGLSARHEALVAERKRALFREALRRARPERVLEIGPGPGTNLAHLPEGVAYLALEPNPFFHPRLREEARKRGLALTLLPGRAEAIPLPGGSVDLVVATLVLCSVADPEKAIEEVHRVLRPGGAYLFLEHVAAPKGAPLRLLQEAATPFFVFFGDGCHPNRKTLAQIQARFPRVEAEAFSLPLPVVAPHVAGLAFKELEHHHHHH”, the protein production is reported as “failed”.
In the case of “MLYIFTPTFNRGYRLSYLYDSLCNQTNKNFIWLIVDDGSEDSTKEIVSNYIKENKVSIVYLYKRNGGKHSAYNLAMRYMQPSDYHVCVDSDDWLLEDAVEIIFKDLESLTLSNRYVGLVYPRYSLNQGNNWLNPKILEVNIPDLKYKYHLKIETCIVINNAYLVDFEFPCFEGENFLSEEIMYIYLSKKGYFCPQNRKIYCFDYLEDGLTSNIFKLWRKNFKGTIFSLENSYMYVMSFPNIFDRWWSAIKIKMNIQALKMTTLGVIPTLKSEEAGWKILLGFSYLWKVARFKKSELEHHHHHH”, the protein production is reported as “not failed”.
For “MMDTVKNRRTIRKYQQKDITPDLLNDLLETSFRASTMGGMQLYSVVVTRDAEKKEILSPAHFNQPMVKEAPVVLTFCADFRRFCKYCQERNAVPGYGNLMSFLNAAMDTLLVAQTFCTLAEEAGLGICYLGTTTYNPQMIIDALHLPELVFPITTVTVGYPAESPKQVDRLPIEGIIHEESYHDYTAEDINRLYAYKESLPENKLFIEENQKETLPQVFTDVRYTKKDNEFMSENLLKVLRRQGFMD”, the protein production was “not failed”.
For “MMDYALLSLMLLFTLLLAFILTRLKVSPVIAYLLGGLISFNYFHFDFNSSYFEILNFLALNLLAFEIGTSFDISRAKELFRRAMGIALTELILIVLISYFIGLYLLHLDLFASLFLVMASIDTSTSILYKIIGNKVDKNDRDLLVAVASVEDIEVFFLYSIAIALNGSFNVFRISFVILEVFIASLIIYAFAKYFLTGLSIFKFTSFEDESILILVPIVLVFVFEYISQVTQVPATLTMILAGIAFSSISGSEKVLRYTGPIREFSLIFFFLSVGSYLKITAGISTFVLISFIILAIKYFSFSTASWVSGTTLVKAFTNGLYMLPLSEFGIIVSLQALQQGIDIAIVYYISVVVVLVSSIIASILAVRVNVLQRVIGIVYSRSYFLRQLDSTIIWLNKTLSTNLSPILRSVLFRGFVKMFLYLILPYVLFPIINSIVKSIIDPINNLILQYLLYSGEIVIALFLLYLFLLEGSRLYSIINNEILVRIVRVRSRLFKEFWFGLTSFSSTFYTIILTIIYIIFEIIPLLYNFPIRLVFVPLLISLYFIYRYRAPPITYTRIDNKEADKIVKLSVKVIKKMRKRRSKRSIISTTKTVRREWS”, the protein production was “failed”.
In the case of “MMEFNVAENGGGSYRPLAILRWVMVVIFVSFGMQKFTLQSAQGIAQFITNSPFISWLSIFGLRGEAYVLGVAEFAIAALLAAGSFSPVLSAVGSFMGVVTFAITWSFFFTTPGVVTWSLSSDPMAWNLTGEFLFKDIVLLCVCAVLFLASLPRSAIRLRTG”, the protein production is reported as “failed”.
With “MMEKYNKFDLLWLLVPLSGLIVMGLMAVYSATNGSTESVPLFYKQLSWAVTGAIAASIIYFMDYRVVKDNAYFMYAAGIILLIAVLVFGKKVAGATSWVRFGMFSFQPSELTKMFTIIAMARFLSDDQTDIGNMMDLGKALAIALVPAGLIMLQPDMGTTLTCLSFIVPMIVLAGFDLYYILLGVVPVALMLSGFFNLTILATIAVLSMVMFFLLRKKFYLHQFLVTGGGLLGGLLTWKFTSVILKPHQIKRIQIFLDPTADPRGAGYNALQAKIAIASGGIFGKGFLHGTQTQLRYIPAQWTDFIFCVIAEELGFLGSTLLLLLFAALVLRLVWMVGAIKNRFVELLLAGYASLLLTHVVINIGMTIGVMPVIGVPLPFISYGGSSLVANMMMVGLAMNFSKNRRHIGY” the protein production was “failed”.
With “MMEQEIWVRVTRAAAKRKASTAMGIDEDRLNKKRVFLGELLNVSNVNLLSNLN” the protein production was “failed”.
In the case of “MMFDFDKIIERQSDKCRKWDHAFVCSRFGDVPESFIPLWIADMDFTSPPAVIDGFRRIVEHGTFGYTWCFDEFYDAVIAFQRKRHQVEVEKSWITLTYGTVSTLHYTIQAYCKPGDSVMMNTPVYDPFAMAAQRQGVQVLANPLRVEENRYQLDFNLIEEQLKTYRPTLWFFCSPHNPSGRIWREEEIRQVSDLCQRYGTILVVDEVHAEHILDGKFVSCLTSGCAAQDNLIVLTSPNKALKLGGLKTSYSMIPDDSLRQRFRQQLEKNSITSPNLFGVWGIILAYQHGLPWLDALNDYLQGNARYLADALQTHFPAWKMMTPESSYLAWIDVSADESSATQLTQHFARQAGVVIEDGSHYVQNGENYLQINFGSQRYWLERSTNRMQ”, the protein production is reported as “failed”.
In the case of “MMFEGIRIARQMGHNIAIVSPRVDVIIEISHRIKDAFIDEHIDVLHQSSRQQYNGHFVIATIHQLLRFKQHFDTVFVDEVDAFPLSMDPQLSNAIQLASKSNHSHIFMTATPPRHFLKQFPPEKIIKLPARFHRSPLPIPKFKYFKLKSTRKQNLLLNIFRYQINQQRFTLVFINNIEIMNKMYQQYKMDIPDLICVHSEDDLRFEKIEALRRGQHKIVFTTTILERGFTMTHLDVVVVDAGSFQQEALIQIAGRVGRKQQSPSGLVLFLHEGVTLSMILAKRNIISMNRLAIKRGWIDA”, the protein production is reported as “failed”.
In the case of “MMFGRFSDRAQKMIYYAQEEAQNFKHGYVGTEHILLGILRDENGKAQSLLANMGVTIEKVRRLIEEYEGFGDSDLYKEEPPLTPRTKRLLEISLLEARNLNHNYINPEHVLLALIRESEGVAFTILGNLGVDFERLRKEILDSLS”, the protein production is reported as “failed”.
With “MMILAWILVIIIISVITKWVVHLLTQRQSIYLTKLVITTSCIIQFIIVFFLMKAIVHYLAQALDVFYR” the protein production was “failed”.
In the case of “MMITLVLSSFLSRDNIMRGMIYLIIATILAAIGWGASKMVVMTIPGDIFIGTRFLLASFVLAPFCFKQFRTLTGKQILALSGVGLVLSFALQVWVYAVSITTSLAEGAFIMSLAMIIAPIISWILFRNKPNKAFWIALPISILGMILLTLGNGWKLEASQLGFMLSALLLSMHFVLNKRIIGAITPLLSICVQLFVVGLSGCLYASLNSHPSFEITQHAVFWFLISTIVATAIRYLAQTLGQFSVNIETASLIMILEPVWTLVLSISVLHEVVAPQKLIGGAVIFLSLFVYIKLSRRLK”, the protein production is reported as “failed”.
For “MMKRALTGIQASGKQHLGNYLGVMQSLIELQEQCQLFVFVADLHSITVDFQPQALKQNNFDLVRTLLAVGLDPQKACLFLQSDLLEHSMMGYLMMVQSNLGELQRMTQFKAKKAEQTRNPNGTLNIPTGLLTYPALMAGDILLYQPDIVPVGNDQKQHLELTRDLAQRIQKKFKLKLRLPQFVQNKDTNRIMDLFDPTKKMSKSSKNQNGVIYLDDPKEVVVKKIRQATTDSFNKIRFAPKTQPGVTNMLTILKALLKEPVNQSLTNQLGNDLEAYFSTKSYLDLKNALTEATVNLLVNIQRKREQISREQVFNCLQAGKNQAQATARTTLALFYDGFGLGSQNIK”, the protein production was “not failed”.
In the case of “MMKRARIIYNPTSGRELFKKSLPEVLQKLEQAGYEASCHATTGPGDATVAARQAVERKFDVVIAAGGDGTLNEVVNGLVGHEFRPKFGIIPVGTTNDFARAIGVPRSIEEAADIICEGKTVPLDLGRANDTYFINIAGGGRITELTYEVPSKLKTVLGQLAYYLKGIEMLPSLHPTYVEIEYDGKLLQEEITMFLITNTRSVGGFEKVAPYASINDGLFDLLVLKKGSIADLIKAATQAQRGEHINNPKVLYTQANRIKVHSPDKLMINLDGEYGGDAPMEFENMYHCLELFVPEHQEDAL”, the protein production is reported as “failed”.
